Results on two substances are retold here after patent EP4729537A1, “B-LACTAMASE-INHIBITING ANTIBODY AND USE THEREOF IN THE TREATMENT AND/OR PREVENTION OF INFECTIONS CAUSED BY B-LACTAMASE-PRODUCING BACTERIA” (priority 2023, dated 2024).

Several values for one entry are separate records, joined by “and”; a condition that tells them apart may be missing. Identical values can stand only once.

The subject of series [1] is O=C(Cc1cccs1)N[C@@H]1C(=O)N2C(C(=O)O)=C(/C=C/c3ccc([N+](=O)[O-])cc3[N+](=O)[O-])CS[C@H]12. Description: nitrocefin hydrolysis assay with E. coli BL21(DE3) cells expressing the β-lactamase in the periplasm. The format is cell-based, Klebsiella pneumoniae. The conditions noted are these: other: E. coli cells, control without antibody (controls of the B2 and B5 runs).
Description: (§1) An in vivo assay was conducted to test the inhibitory capacity of four β-lactamases from three resistant microorganisms: BlaMab from Mycobacterium abscessus, KPC-2 (UNIPROT Q9F663) and OXA-48 (UNIPROT Q6XEC0) from Klebsiella pneumoniae, and VIM-2 (UNIPROT B8QIQ9) from Pseudomonas aeruginosa. The assay utilized BL21(DE3) strain cells of Escherichia coli transformed with the expression vector pET26b(+) along with the gene sequence of each β-lactamase. Cells successfully transformed with the vector and insert were selected using a Kanamycin resistance gene (KanR) present in the vector. […] Additionally, the pET26b(+) vector has an IPTG-inducible promoter to activate the translation of the corresponding β-lactamase. The plasmid also includes a pelB export signal directing the β-lactamase to the periplasmic space of the bacteria for the inhibition assay with Ndis (nanobodies, single-domain antibodies).
(§2) This compound changes color from yellow to red when hydrolyzed by β-lactamase, which can be quantified by measuring absorbance at 490nm.
Series [2] has the same test system. Described as above. The following applies: other: E. coli cells, control without antibody (controls of the B2 and B5 runs). The format is cell-based, Pseudomonas aeruginosa.
Description: as §1, §2

Regarding “OXA-48 (UNIPROT Q6XEC0) from Klebsiella pneumoniae (Klebsiella pneumoniae)”, in series [1], the Km turned out to be 4.48 µM.

Take “VIM-2 (UNIPROT B8QIQ9) from Pseudomonas aeruginosa (Pseudomonas aeruginosa)”: in series [2], the Michaelis constant (Km) is 4.35 µM and 6.75 µM.

Broadly, the Km is the substrate concentration at which the rate is half of its maximum.
